Assay results: patent publication US20240400708A1

Target: feline FcRn complex (FcRn-α subunit and β-microglobulin), biotin labeled (feline)
Assay: SPR, pH 6

Row | Molecule | Kd [nM]
1 | feline IgG1a A378Y (antibody, part only; not given: Variable domains, not shown: another chain or arm of the molecule; small tags and cut ends) constant: ASTTAPSVFPLAPSCGTTSGATVALACLVLGYFPEPVTVSWNSGALTSGVHTFPAVLQASGLYSLSSMVTVPSSRWLSDTFTCNVAHPPSNTKVDKTVRKTDHPPGPKPCDCPKCPPPEMLGGPSIFIFPPKPKDTLSISRTPEVTCLVVDLGPDDSDVQITWFVDNTQVYTAKTSPREEQFNSTYRVVSVLPILHQDWLKGKEFKCKVNSKSLPSPIERTISKAKGQPHEPQVYVLPPAQEELSRNKVSVTCLIKSFHPPDIYVEWEITGQPEPENNYRTTPPQLDSDGTYFVYSKLSVDRSHWQRGNTYTCSVSHEALHSHHTQKSLTQSPGK | 69.6
2 | feline IgG1a A378S (antibody, part only; not given: Variable domains, not shown: another chain or arm of the molecule) constant: ASTTAPSVFPLAPSCGTTSGATVALACLVLGYFPEPVTVSWNSGALTSGVHTFPAVLQASGLYSLSSMVTVPSSRWLSDTFTCNVAHPPSNTKVDKTVRKTDHPPGPKPCDCPKCPPPEMLGGPSIFIFPPKPKDTLSISRTPEVTCLVVDLGPDDSDVQITWFVDNTQVYTAKTSPREEQFNSTYRVVSVLPILHQDWLKGKEFKCKVNSKSLPSPIERTISKAKGQPHEPQVYVLPPAQEELSRNKVSVTCLIKSFHPPDISVEWEITGQPEPENNYRTTPPQLDSDGTYFVYSKLSVDRSHWQRGNTYTCSVSHEALHSHHTQKSLTQSPGK | 48.3
3 | feline IgG1a A378W (antibody, part only; not given: Variable domains, not shown: another chain or arm of the molecule; small tags and cut ends) constant: ASTTAPSVFPLAPSCGTTSGATVALACLVLGYFPEPVTVSWNSGALTSGVHTFPAVLQASGLYSLSSMVTVPSSRWLSDTFTCNVAHPPSNTKVDKTVRKTDHPPGPKPCDCPKCPPPEMLGGPSIFIFPPKPKDTLSISRTPEVTCLVVDLGPDDSDVQITWFVDNTQVYTAKTSPREEQFNSTYRVVSVLPILHQDWLKGKEFKCKVNSKSLPSPIERTISKAKGQPHEPQVYVLPPAQEELSRNKVSVTCLIKSFHPPDIWVEWEITGQPEPENNYRTTPPQLDSDGTYFVYSKLSVDRSHWQRGNTYTCSVSHEALHSHHTQKSLTQSPGK | 91
4 | feline IgG1a A378V (antibody, part only; not given: Variable domains, not shown: another chain or arm of the molecule; small tags and cut ends) constant: ASTTAPSVFPLAPSCGTTSGATVALACLVLGYFPEPVTVSWNSGALTSGVHTFPAVLQASGLYSLSSMVTVPSSRWLSDTFTCNVAHPPSNTKVDKTVRKTDHPPGPKPCDCPKCPPPEMLGGPSIFIFPPKPKDTLSISRTPEVTCLVVDLGPDDSDVQITWFVDNTQVYTAKTSPREEQFNSTYRVVSVLPILHQDWLKGKEFKCKVNSKSLPSPIERTISKAKGQPHEPQVYVLPPAQEELSRNKVSVTCLIKSFHPPDIVVEWEITGQPEPENNYRTTPPQLDSDGTYFVYSKLSVDRSHWQRGNTYTCSVSHEALHSHHTQKSLTQSPGK | 42.9
5 | feline IgG1a A378R (antibody, part only; not given: Variable domains, not shown: another chain or arm of the molecule) constant: ASTTAPSVFPLAPSCGTTSGATVALACLVLGYFPEPVTVSWNSGALTSGVHTFPAVLQASGLYSLSSMVTVPSSRWLSDTFTCNVAHPPSNTKVDKTVRKTDHPPGPKPCDCPKCPPPEMLGGPSIFIFPPKPKDTLSISRTPEVTCLVVDLGPDDSDVQITWFVDNTQVYTAKTSPREEQFNSTYRVVSVLPILHQDWLKGKEFKCKVNSKSLPSPIERTISKAKGQPHEPQVYVLPPAQEELSRNKVSVTCLIKSFHPPDIRVEWEITGQPEPENNYRTTPPQLDSDGTYFVYSKLSVDRSHWQRGNTYTCSVSHEALHSHHTQKSLTQSPGK | 36.2
6 | feline IgG1a S252A (antibody, part only; not given: Variable domains, not shown: another chain or arm of the molecule; small tags and cut ends) constant: ASTTAPSVFPLAPSCGTTSGATVALACLVLGYFPEPVTVSWNSGALTSGVHTFPAVLQASGLYSLSSMVTVPSSRWLSDTFTCNVAHPPSNTKVDKTVRKTDHPPGPKPCDCPKCPPPEMLGGPSIFIFPPKPKDTLAISRTPEVTCLVVDLGPDDSDVQITWFVDNTQVYTAKTSPREEQFNSTYRVVSVLPILHQDWLKGKEFKCKVNSKSLPSPIERTISKAKGQPHEPQVYVLPPAQEELSRNKVSVTCLIKSFHPPDIAVEWEITGQPEPENNYRTTPPQLDSDGTYFVYSKLSVDRSHWQRGNTYTCSVSHEALHSHHTQKSLTQSPGK | 27.1
7 | feline IgG1a A378Q (antibody, part only; not given: Variable domains, not shown: another chain or arm of the molecule) constant: ASTTAPSVFPLAPSCGTTSGATVALACLVLGYFPEPVTVSWNSGALTSGVHTFPAVLQASGLYSLSSMVTVPSSRWLSDTFTCNVAHPPSNTKVDKTVRKTDHPPGPKPCDCPKCPPPEMLGGPSIFIFPPKPKDTLSISRTPEVTCLVVDLGPDDSDVQITWFVDNTQVYTAKTSPREEQFNSTYRVVSVLPILHQDWLKGKEFKCKVNSKSLPSPIERTISKAKGQPHEPQVYVLPPAQEELSRNKVSVTCLIKSFHPPDIQVEWEITGQPEPENNYRTTPPQLDSDGTYFVYSKLSVDRSHWQRGNTYTCSVSHEALHSHHTQKSLTQSPGK | 49
8 | feline IgG1a S252C (antibody, part only; not given: Variable domains, not shown: another chain or arm of the molecule; small tags and cut ends) constant: ASTTAPSVFPLAPSCGTTSGATVALACLVLGYFPEPVTVSWNSGALTSGVHTFPAVLQASGLYSLSSMVTVPSSRWLSDTFTCNVAHPPSNTKVDKTVRKTDHPPGPKPCDCPKCPPPEMLGGPSIFIFPPKPKDTLCISRTPEVTCLVVDLGPDDSDVQITWFVDNTQVYTAKTSPREEQFNSTYRVVSVLPILHQDWLKGKEFKCKVNSKSLPSPIERTISKAKGQPHEPQVYVLPPAQEELSRNKVSVTCLIKSFHPPDIAVEWEITGQPEPENNYRTTPPQLDSDGTYFVYSKLSVDRSHWQRGNTYTCSVSHEALHSHHTQKSLTQSPGK | 922
9 | feline IgG1a S252D (antibody, part only; not given: Variable domains, not shown: another chain or arm of the molecule; small tags and cut ends) constant: ASTTAPSVFPLAPSCGTTSGATVALACLVLGYFPEPVTVSWNSGALTSGVHTFPAVLQASGLYSLSSMVTVPSSRWLSDTFTCNVAHPPSNTKVDKTVRKTDHPPGPKPCDCPKCPPPEMLGGPSIFIFPPKPKDTLDISRTPEVTCLVVDLGPDDSDVQITWFVDNTQVYTAKTSPREEQFNSTYRVVSVLPILHQDWLKGKEFKCKVNSKSLPSPIERTISKAKGQPHEPQVYVLPPAQEELSRNKVSVTCLIKSFHPPDIAVEWEITGQPEPENNYRTTPPQLDSDGTYFVYSKLSVDRSHWQRGNTYTCSVSHEALHSHHTQKSLTQSPGK | 93.5
10 | feline IgG1a A378T (antibody, part only; not given: Variable domains, not shown: another chain or arm of the molecule; small tags and cut ends) constant: ASTTAPSVFPLAPSCGTTSGATVALACLVLGYFPEPVTVSWNSGALTSGVHTFPAVLQASGLYSLSSMVTVPSSRWLSDTFTCNVAHPPSNTKVDKTVRKTDHPPGPKPCDCPKCPPPEMLGGPSIFIFPPKPKDTLSISRTPEVTCLVVDLGPDDSDVQITWFVDNTQVYTAKTSPREEQFNSTYRVVSVLPILHQDWLKGKEFKCKVNSKSLPSPIERTISKAKGQPHEPQVYVLPPAQEELSRNKVSVTCLIKSFHPPDITVEWEITGQPEPENNYRTTPPQLDSDGTYFVYSKLSVDRSHWQRGNTYTCSVSHEALHSHHTQKSLTQSPGK | 59.2

The remaining lines, values ahead:

Row | Kd [nM] | Molecule
11 | 4.8 | feline IgG1a S434Q (antibody)
12 | 20.2 | feline IgG1a wild-type (WT) (antibody, part only; not given: Variable domains, not shown: another chain or arm of the molecule) constant: ASTTAPSVFPLAPSCGTTSGATVALACLVLGYFPEPVTVSWNSGALTSGVHTFPAVLQASGLYSLSSMVTVPSSRWLSDTFTCNVAHPPSNTKVDKTVRKTDHPPGPKPCDCPKCPPPEMLGGPSIFIFPPKPKDTLSISRTPEVTCLVVDLGPDDSDVQITWFVDNTQVYTAKTSPREEQFNSTYRVVSVLPILHQDWLKGKEFKCKVNSKSLPSPIERTISKAKGQPHEPQVYVLPPAQEELSRNKVSVTCLIKSFHPPDIAVEWEITGQPEPENNYRTTPPQLDSDGTYFVYSKLSVDRSHWQRGNTYTCSVSHEALHSHHTQKSLTQSPGK
13 | 49.8 | feline IgG1a S252G (antibody, part only; not given: Variable domains, not shown: another chain or arm of the molecule) constant: ASTTAPSVFPLAPSCGTTSGATVALACLVLGYFPEPVTVSWNSGALTSGVHTFPAVLQASGLYSLSSMVTVPSSRWLSDTFTCNVAHPPSNTKVDKTVRKTDHPPGPKPCDCPKCPPPEMLGGPSIFIFPPKPKDTLGISRTPEVTCLVVDLGPDDSDVQITWFVDNTQVYTAKTSPREEQFNSTYRVVSVLPILHQDWLKGKEFKCKVNSKSLPSPIERTISKAKGQPHEPQVYVLPPAQEELSRNKVSVTCLIKSFHPPDIAVEWEITGQPEPENNYRTTPPQLDSDGTYFVYSKLSVDRSHWQRGNTYTCSVSHEALHSHHTQKSLTQSPGK
14 | 53.7 | feline IgG1a S252K (antibody, part only; not given: variable domains and light chain, not shown: another chain or arm of the molecule) constant: ASTTAPSVFPLAPSCGTTSGATVALACLVLGYFPEPVTVSWNSGALTSGVHTFPAVLQASGLYSLSSMVTVPSSRWLSDTFTCNVAHPPSNTKVDKTVRKTDHPPGPKPCDCPKCPPPEMLGGPSIFIFPPKPKDTLKISRTPEVTCLVVDLGPDDSDVQITWFVDNTQVYTAKTSPREEQFNSTYRVVSVLPILHQDWLKGKEFKCKVNSKSLPSPIERTISKAKGQPHEPQVYVLPPAQEELSRNKVSVTCLIKSFHPPDIAVEWEITGQPEPENNYRTTPPQLDSDGTYFVYSKLSVDRSHWQRGNTYTCSVSHEALHSHHTQKSLTQSPGK
15 | 156 | feline IgG1a S252I (antibody, part only; not given: Variable domains, not shown: another chain or arm of the molecule) constant: ASTTAPSVFPLAPSCGTTSGATVALACLVLGYFPEPVTVSWNSGALTSGVHTFPAVLQASGLYSLSSMVTVPSSRWLSDTFTCNVAHPPSNTKVDKTVRKTDHPPGPKPCDCPKCPPPEMLGGPSIFIFPPKPKDTLIISRTPEVTCLVVDLGPDDSDVQITWFVDNTQVYTAKTSPREEQFNSTYRVVSVLPILHQDWLKGKEFKCKVNSKSLPSPIERTISKAKGQPHEPQVYVLPPAQEELSRNKVSVTCLIKSFHPPDIAVEWEITGQPEPENNYRTTPPQLDSDGTYFVYSKLSVDRSHWQRGNTYTCSVSHEALHSHHTQKSLTQSPGK
16 | 70.7 | feline IgG1a S252L (antibody, part only; not given: Variable domains, not shown: another chain or arm of the molecule) constant: ASTTAPSVFPLAPSCGTTSGATVALACLVLGYFPEPVTVSWNSGALTSGVHTFPAVLQASGLYSLSSMVTVPSSRWLSDTFTCNVAHPPSNTKVDKTVRKTDHPPGPKPCDCPKCPPPEMLGGPSIFIFPPKPKDTLLISRTPEVTCLVVDLGPDDSDVQITWFVDNTQVYTAKTSPREEQFNSTYRVVSVLPILHQDWLKGKEFKCKVNSKSLPSPIERTISKAKGQPHEPQVYVLPPAQEELSRNKVSVTCLIKSFHPPDIAVEWEITGQPEPENNYRTTPPQLDSDGTYFVYSKLSVDRSHWQRGNTYTCSVSHEALHSHHTQKSLTQSPGK
17 | 163 | feline IgG1a S252E (antibody, part only; not given: variable domains, not shown: another chain or arm of the molecule) constant: ASTTAPSVFPLAPSCGTTSGATVALACLVLGYFPEPVTVSWNSGALTSGVHTFPAVLQASGLYSLSSMVTVPSSRWLSDTFTCNVAHPPSNTKVDKTVRKTDHPPGPKPCDCPKCPPPEMLGGPSIFIFPPKPKDTLEISRTPEVTCLVVDLGPDDSDVQITWFVDNTQVYTAKTSPREEQFNSTYRVVSVLPILHQDWLKGKEFKCKVNSKSLPSPIERTISKAKGQPHEPQVYVLPPAQEELSRNKVSVTCLIKSFHPPDIAVEWEITGQPEPENNYRTTPPQLDSDGTYFVYSKLSVDRSHWQRGNTYTCSVSHEALHSHHTQKSLTQSPGK
